From paper PMC11375965 (Nature, 2024) come the findings set out here.

This data set deals with the molecule itself. The data set is described as follows: cryo-EM structure.

B1: human INF2 (inverted formin-2) residues 469-1249 (domain or fragment)
chain: not shown
B1: the binding result is listed as “binds”.
